Our source for the stoichiometry N values is publication PMC2699502.

The test addresses EcoR124I S subunit (HsdS) (UniProt P10485).
Chain of UniProt P10485 (P10485 whole entry): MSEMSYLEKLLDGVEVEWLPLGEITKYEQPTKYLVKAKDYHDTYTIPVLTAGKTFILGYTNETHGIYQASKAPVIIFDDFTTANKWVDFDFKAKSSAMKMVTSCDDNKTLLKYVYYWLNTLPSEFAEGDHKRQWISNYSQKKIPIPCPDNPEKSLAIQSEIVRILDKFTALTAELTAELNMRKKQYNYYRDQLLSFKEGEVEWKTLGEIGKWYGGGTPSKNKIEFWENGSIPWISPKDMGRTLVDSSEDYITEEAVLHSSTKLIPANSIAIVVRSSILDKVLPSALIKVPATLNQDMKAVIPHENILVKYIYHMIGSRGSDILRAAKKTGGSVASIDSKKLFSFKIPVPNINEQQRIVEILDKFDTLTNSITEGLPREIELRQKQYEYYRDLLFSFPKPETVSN

B1: EcoR124I R subunit (HsdR) (enzyme)
chain: MTHQTHTIAESNNFIVLDKYIKAEPTGDSYQSESDLERELIQDLRNQGYEFISVKSQSAMLANVREQLQNLNGVVFNDSEWRRFTEQYLDNPSDGILDKTRKIHIDYICDFIFDDERLENIYLIDKKNLMRNKVQIIQQFEQAGSHANRYDVTILVNGLPLVQIELKKRGVAIREAFNQIHRYSKESFNSENSLFKYLQLFVISNGTDTRYFANTTKRDKNSFDFTMNWAKSDNTLIKDLKDFTATCFQKHTLLNVLVNYSVFDSSQTLLVMRPYQIAATERILWKIKSSFTAKNWSKPESGGYIWHTTGSGKTLTSFKAARLATELDFIDKVFFVVDRKDLDYQTMKEYQRFSPDSVNGSENTAGLKRNLDKDDNKIIVTTIQKLNNLMKAESDLPVYNQQVVFIFDECHRSQFGEAQKNLKKKFKRYYQFGFTGTPIFPENALGSETTASVFGRELHSYVITDAIRDEKVLKFKVDYNDVRPQFKSLETETDEKKLSAAENQQAFLHPMRIQEITQYILNNFRQKTHRTFPGSKGFNAMLAVSSVDAAKAYYATFKRLQEEAANKSATYKPLRIATIFSFAANEEQNAIGEISDETFDTSAMDSSAKEFLDAAIREYNSHFKTNFSTDSNGFQNYYRDLAQRVKNQDIDLLIVVGMFLTGFDAPTLNTLFVDKNLRYHGLMQAFSRTNRIYDATKTFGNIVTFRDLERSTIDAITLFGDKNTKNVVLEKSYTEYMEGFTDAATGEAKRGFMTVVSELEQRFPDPTSIESEKEKKDFVKLFGEYLRAENILQNYDEFATLKALQQIDLSDPVAVEKFKAEHYVDDEKFAELQTIRLPADRKIQDYRSAYNDIRDWQRREKEAEKKEKSTTDWDDVVFEVDLLKSQEINLDYILGLIFEHNRQNKGKGEMIEEVKRLIRSSLGNRAKEGLVVDFIQQTNLDDLPDKASIIDAFFTFAQREQQREAEALIKEENLNEDAAKRYIRTSLKREYATENGTELNETLPKLSPLNPQYKTKKQAVFQKIVSFIEKFKGVGGKI
The term stoichiometry N denotes a count of units in the complex or per binding partner. Molecule B1 showed a stoichiometry N of 1 R per S.

B2: EcoR124I M subunit (HsdM) (enzyme)
chain: MKMTSIQQRAELHRQIWQIANDVRGSVDGWDFKQYVLGALFYRFISENFSSYIEAGDDSICYAKLDDSVITDDIKDDAIKTKGYFIYPSQLFCNVAAKANTNDRLNADLNSIFVAIESSAYGYPSEADIKGLFADFDTTSNRLGNTVKDKNARLAAVLKGVEGLKLGDFNEHQIDLFGDAYEFLISNYAANAGKSGGEFFTPQHVSKLIAQLAMHGQTHVNKIYDPAAGSGSLLLQAKKQFDNHIIEEGFFGQEINHTTYNLARMNMFLHNINYDKFDIKLGNTLTEPHFRDEKPFDAIVSNPPYSVKWIGSDDPTLINDERFAPAGVLAPKSKADFAFVLHALNYLSAKGRAAIVCFPGIFYRGGAEQKIRQYLVDNNYVETVISLAPNLFFGTTIAVNILVLSKHKTDTNVQFIDASELFKKETNNNILTDAHIEQIMQVFASKEDVAHLAKSVAFETVVANDYNLSVSSYVEAKDNREIIDIAELNAELKTTVSKIDQLRKDIDAIVAEIEGCEVQK
B2 returned a stoichiometry N of 2 M per S.
